Assay results published in paper PMC12052392 (2025).
Numbering of substitutions follows the chain as printed. “And” between values parts separate entries of the source, which are not always exact repeats. Equal entries are not always repeated.

Tests used:
[1] = molecular target: T1, SARS-CoV-2 S2 (T1076-Q1208) antigen, trimeric S2 fusion-core-based antigen (SARS-CoV-2, UniProt P0DTC2 1076-1208); experiment: BLI
T1 chain: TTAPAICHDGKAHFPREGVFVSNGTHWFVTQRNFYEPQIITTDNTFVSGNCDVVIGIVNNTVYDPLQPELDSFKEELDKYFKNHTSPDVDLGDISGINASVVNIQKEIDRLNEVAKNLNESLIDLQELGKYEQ

S2 (G1124-H1159) = experiment: ELISA
S2 (D1139-D1153) = experiment: ELISA
[2] = molecular target: T2, GST-fused truncated S2 protein S2 (D1139-E1151) (SARS-CoV-2, UniProt P0DTC2 1139-1151); experiment: ELISA
T2 chain: DPLQPELDSFKEE

B1: nanobody H145 (VHH)
VHH: QVQLVESGGGLVQTGGSLRLSCEASGSAFSSYAVNWYRQAPGKQREPVAAIGSFNTVYSDSVKGRFTISRDNAKNTVYLQMNSLKPEDTAVYICNARRGATNTWGQGTQVTVSS
modifications: biotin (Biotinylation Kit), only in the BLI with truncated S2 proteins
In the case of B1, the koff [1] is reported as 0.000149 s⁻¹ and 0.000129 s⁻¹ and 0.000123 s⁻¹, the EC50 (S2 (G1124-H1159)) is reported as 0.53 nM and the EC50 (S2 (D1139-D1153)) is reported as 1.01 nM. The EC50 [2] was over 170 nM.

B2: nanobody H17 (VHH)
VHH: B1 VHH with Q1E, L4V, E23A, I93V, T103Y, S114P
modifications: biotin (Biotinylation Kit), only in the BLI with truncated S2 proteins
For B2, the koff [1] was 0.000525 s⁻¹ and 0.00023 s⁻¹, the EC50 (S2 (G1124-H1159)) was 4.71 nM and the EC50 (S2 (D1139-D1153)) was 4.83 nM.
